For experiment [1], the target named is T1, full-length PrPc displayed on 293T cells (293T-PrPc) (Homo sapiens (Human)., UniProt P04156).
The target of the next experiment is PrPc-35aa (Homo sapiens (Human).). The experiment can be described thus: BLI. The following applies: both partners purified.
Experiment [2] deals with T1, full-length PrPc displayed on 293T …. Description: Western blotting. Particulars: one partner purified.

B1: HAb 6b (antibody, V domains shown)
VH: EVQLVQSGAEVKKPGATVKMSCKASGYTFTDYYMKWVKQAPGKGLEWIGDINPNNGDTFYNEKFQGRATLTVDKSTNTAYMELSSLRSEDTAVYYCAKPGRTYWGQGTLVTVS
VL: DIVLTQSPDSLAVSLGERVTMSCKSSQSLLDSGNQKNYLVWYQQKPGQPPKLLIYGASTRESGVPDRFSGSGSGTDFTLTISSVQAEDVAVYYCQNDHSYPLTFGAGTKLELK
B1: the binding result in experiment [1] is “binds”.

B2: HAb 6 (antibody, V domains shown)
VH: EVQLVQSGAEVKKPGATVKMSCKASGYTFTDYYMKWVKQAPGKSLEWIGDINPNNGDTFYNQKFQGRATLTVDKSSNTAYMELSSLRSEDTAVYYCAKPGRTYWGQGTLVTVS
VL: DIVLTQSPDSLAVSLGERVTMSCKSSQSLLDSGNQKNYLVWYQQKPGQPPKLLIYGASTRESGVPDRFTGSGSGTDFTLTISSVQAEDVAVYYCQNDHSYPLTFGAGTKLELK
notes: IgG1; also called humanized antibody HAb 6; wild-type antibody; source: 293F cells, purified with protein A column
In the case of B2, in the experiment with PrPc-35aa, the dissociation constant (Kd) is 2920 pM.

B3: 4AA (antibody, V domains shown)
VH: EVQLVQSGAEVKKPGDTVKMSCKASGYTFTDYYMKWVKQAPGKAPGKSLEWIGDINPNNGDTFYNQKFQGRATLTVDKSSNTAYMELSSLRSEDTAVYYCVKPGRTYWGQGTLVTVS
VL: DIVLTQSPDSLAVSLGERVTMSCKSSQSLLDSGNQKNYLVWYQQKPGQPPKLLIYGASTRESGVPDRFTGSGSGTDFTLTISSVQAEDVAVYYCQNDHSYPLTFGAGTKLELK
notes: IgG1
On to B3, for which the affinity with PrPc-35aa, expressed as Kd, was 281 pM.

B4: 4AA-m (antibody, V domains shown)
VH: EVQLVQSGAEVKKPGDTVKMSCKASGYTFTDYYMKWVKQAPGKAPGKSLEWIGDINPNNGDTFYNQKFQGRATLTVDKSSNTAYMELSSLRSEDTAVYYCVKPGRTYWGQGTLVTVS
VL: DIVLTQSPDSLAVSLGERVTMSCKSSQSLLDSGNQKNYLVWYQQKPGQPPKLLIYGASTRESGVPDRFTGSGSGTDFTLTISSVQAEDVAVYYCQNDHSYPLTFGAGTKLELK
notes: also called recombinant 4AA-m; source: 293F cells, purified with protein A column (said of the antibodies in general)
Regarding B4, in experiment [2], the “Western blot signal on the 5 μg lysate, fold of that with 3F4” value turned out to be 3 fold and the “Western blot signal on the 5 μg lysate, fold of that with 8H4” value stood at 9 fold.

B5: HAb 6c (antibody, V domains shown)
VH: EVQLVQSGAEVKKPGATVKISCKASGYTFTDYYMKWVQQAPGKGLEWMGLVNPNNGDTFYNEKFQGRVTITVDKSTNTAYMELSSLRSEDTAVYYCATPGRTYWGQGTLVTVS
VL: DIVLTQSPDSLAVSLGERATISCKSSQSLLDSGNQKNYLVWYQQKPGQPPKLLIYGASTRESGVPDRFSGSGSGTDFTLTISSLQAEDVAVYYCQNDHSYPLTFGAGTKLELK
As to B5, in experiment [1], the binding result was “binds”.

B6: Clone 6 (antibody, V domains shown)
VH: EVQLQQSGPELVKPGASVKMSCKASGYTFTDYYMKWVKQSHGKSLEWIGDINPNNGDTFYNQKFKGKATLTVDKSSNTAYMQLNSLTSEDSAVYYCAKPGRTYWGQGTLVTVS
VL: DIVLTQSPSSLSVSAGEKVTMSCKSSQSLLDSGNQKNYLVWYQQKPGQPPKLLIYGASTRESGVPDRFTGSGSGTDFTLTISSVQPEDLAVYYCQNDHSYPLTFGAGTKLELK
notes: also called murine anti-PrPc antibody Clone 6; full-length Clone 6 antibody; source: 293F cells, purified with protein A column
Regarding B6, in the experiment with PrPc-35aa, binding was characterised by a dissociation constant (Kd) of 314 pM.
